Results from US20200000897A1 (published 2020).

The binders below were run against T1, HLA-A*03:01 (human) (assay: UV-ligand exchange, anti-b2m ELISA; peptide exchange yield grade (>10% +, >20% ++, >50% +++, >75% ++++)).
T1 construct: MHC class I monomer first loaded with a UV-sensitive peptide that is cleaved by UV irradiation and exchanged for the test peptide; captured on streptavidin plates; also called peptide-receptive MHC molecules
From the text: Candidate peptides for T cell based therapies according to the present invention were further tested for their MHC binding capacity (affinity). The individual peptide-MHC complexes were produced by UV-ligand exchange, where a UV-sensitive peptide is cleaved upon UV-irradiation and exchanged with the peptide of interest as analyzed. Only peptide candidates that can effectively bind and stabilize the peptide-receptive MHC molecules prevent dissociation of the MHC complexes. To determine the yield of the exchange reaction, an ELISA was performed based on the detection of the light chain (β2m) of stabilized MHC complexes. The assay was performed as generally described in Rodenko et al. (Rodenko et al., 2006)
96 well MAXISorp plates (NUNC) were coated over night with 2 ug/ml streptavidin in PBS at room temperature, washed 4× and blocked forl h at 37° C. in 2% BSA containing blocking buffer. Refolded HLA-A*02:01/MLA-001 monomers served as standards, covering the range of 15-500 ng/ml. Peptide-MHC monomers of the UV-exchange reaction were diluted 100-fold in blocking buffer. Samples were incubated for 1 h at 37° C., washed four times, incubated with 2 ug/ml HRP conjugated anti-β2m for 1 h at 37° C., washed again and detected with TMB solution that is stopped with […]. Absorption was measured at 450 nm.

First: AATIISSAK
Second: ATNGKVLKK
The peptide exchange yield of the first is lower: 10 to 20% for the first, > 75% for the second.

First: GGLSSQGVYY
Second: ATNGKVLKKR
The peptide exchange yield of the first is lower: 20 to 50% for the first, > 75% for the second.

First: ATIGLSVSK
Second: SLLEADPFLK
The peptide exchange yield of the first is higher: > 75% for the first, 50 to 75% for the second.

Compared with VSYNRLIK, KMMKRLMTVEK is higher in peptide exchange yield: 50 to 75% for the first, > 75% for the second.

First: VIGTTSSPK
Second: RLYDAYVNR
The peptide exchange yield of the first is lower: 50 to 75% for the first, > 75% for the second.

First: ALLGVIIAKK
Second: RIYVYVKRK
The peptide exchange yield of the first is higher: > 75% for the first, 50 to 75% for the second.

First: KINPTASLK
Second: RLYYSFKNITK
The peptide exchange yield of the first is lower: 50 to 75% for the first, > 75% for the second.

First: RLKMAQESVSK
Second: RVAEEILIK
The peptide exchange yield of the first is higher: > 75% for the first, 50 to 75% for the second.

QICLPAIYK and KVYIPPIINK cannot be ordered by peptide exchange yield: > 75% for the first, > 75% for the second.

KVLEPPLGAR and SIINFKPLTY fall in the same range of peptide exchange yield: 50 to 75% for the first, 50 to 75% for the second.

First: KTCQVSGLLY
Second: SSLPRAFQK
The peptide exchange yield of the first is higher: > 75% for the first, 20 to 50% for the second.

First: KVFEEPEDFLK
Second: RSKWSNVFK
The peptide exchange yield of the first is lower: 20 to 50% for the first, > 75% for the second.

ALAAKLEVK and SLYNLGGAK cannot be ordered by peptide exchange yield: > 75% for the first, > 75% for the second.

First: RSYSHVVLK
Second: IVYPSATDKTK
The peptide exchange yield of the first is higher: > 75% for the first, 50 to 75% for the second.

KLQAKVLQY and AISSTVLGK cannot be ordered by peptide exchange yield: > 75% for the first, > 75% for the second.

RIVDYLLEK and IVFPDVISK cannot be ordered by peptide exchange yield: > 75% for the first, > 75% for the second.

RVLPPLTRILK and KVADFGLARLLK cannot be ordered by peptide exchange yield: > 75% for the first, > 75% for the second.

RLFPGLYLGY and LLPTVLIKK fall in the same range of peptide exchange yield: 50 to 75% for the first, 50 to 75% for the second.

IVAFIPLSNK and VAFIPLSNK cannot be ordered by peptide exchange yield: > 75% for the first, > 75% for the second.

RVYPRPPSK and RLYEMILQR cannot be ordered by peptide exchange yield: > 75% for the first, > 75% for the second.

KTGWFTLLY and KILDRVLSRY cannot be ordered by peptide exchange yield: > 75% for the first, > 75% for the second.

First: KIFQGQINK
Second: VSLGTPIMK
The peptide exchange yield of the first is higher: > 75% for the first, 50 to 75% for the second.

RTIDRSVFK and KLYPTHACR cannot be ordered by peptide exchange yield: > 75% for the first, > 75% for the second.

Compared with SSLAELIAK, KLFTSVFGVGLK is higher in peptide exchange yield: 20 to 50% for the first, > 75% for the second.

KIWQNLRLK and RVSSVKLISK fall in the same range of peptide exchange yield: 50 to 75% for the first, 50 to 75% for the second.

RVYEGDGRNSLK and KAFNQSSIFTK fall in the same range of peptide exchange yield: 50 to 75% for the first, 50 to 75% for the second.

ALERKFRQK and ALPRQAFHSK cannot be ordered by peptide exchange yield: > 75% for the first, > 75% for the second.
